Experimental data published in publication PMC8294587, “Intrinsic differences in the mechanisms of Tie2 binding to angiopoietins exploited by directed evolution to create an Ang2-selective ligand trap” (The Journal of Biological Chemistry, 2021).

B1: wild-type Tie2 ectodomain-Fc [human] / Angiopoietin-2 [not stated] (parent complex)
chain 1: AMDLILINSLPLVSDAETSLTCIASGWRPHEPITIGRDFEALMNQHQDPLEVTQDVTREWAKKVVWKREKASKINGAYFCEGRVRGEAIRIRTMKMRQQASFLPATLTMTVDKGDNVNISFKKVLIKEEDAVIYKNGSFIHSVPRHEVPDILEVHLPHAQPQDAGVYSARYIGGNLFTSAFTRLIVRRCEAQKWGPECNHLCTACMNNGVCHEDTGECICPPGFMGRTCEKACELHTFGRTCKERCSGQEGCKSYVFCLPDPYGCSCATGWKGLQCNEACHPGFYGPDCKLRCSCNNGEMCDRFQGCLCSPGWQGLQCEREGIQRMTPKIVDLPDHIEVNSGKFNPICKASGWPLPTNEEMTLVKPDGTVLHPKDFNHTDHFSVAIFTIHRILPPDSGVWVCSVNTVAGMVEKPFNISVK
chain 2: YNNFRKSMDSIGKKQYQVQHGSCSYTFLLPEMDNCRSSSSPYVSNAVQRDAPLEYDDSVQRLQVLENIMENNTQWLMKLENYIQDNMKKEMVEIQQNAVQNQTAVMIEIGTNLLNQTAEQTRKLTDVEAQVLNQTTRLELQLLEHSLSTNKLEKQILDQTSEINKLQDKNSFLEKKVLAMEDKHIIQLQSIKEEKDQLQVLVSKQNSIIEELEKKIVTATVNNSVLQKQQHDLMETVNNLLTMMSTSNSAKDPTVAKEEQISFRDCAEVFKSGHTTNGIYTLTFPNSTEEIKAYCDMEAGGGGWTIIQRREDGSVDFQRTWKEYKVGFGNPSGEYWLGNEFVSQLTNQQRYVLKIHLKDWEGNEAYSLYEHFYLSSEELNYRIHLKGLTGTAGKISSISQPGNDFSTKDGDNDKCICKCSQMLTGGWWFDACGPSNLNGMYYPQRQNTNKFNGIKWYYWKGSGYSLKATTMMIRPADF
B2: wild-type Tie2 ectodomain-Fc [human] / Angiopoietin-1 [not stated] (parent complex)
chain 1: B1 chain 1
chain 2: HIGCSNQRRSPENSGRRYNRIQHGQCAYTFILPEHDGNCRESTTDQYNTNALQRDAPHVEPDFSSQKLQHLEHVMENYTQWLQKLENYIVENMKSEMAQIQQNAVQNHTATMLEIGTSLLSQTAEQTRKLTDVETQVLNQTSRLEIQLLENSLSTYKLEKQLLQQTNEILKIHEKNSLLEHKILEMEGKHKEELDTLKEEKENLQGLVTRQTYIIQELEKQLNRATTNNSVLQKQQLELMDTVHNLVNLCTKEGVLLKGGKREEEKPFRDCADVYQAGFNKSGIYTIYINNMPEPKKVFCNMDVNGGGWTVIQHREDGSLDFQRGWKEYKMGFGNPSGEYWLGNEFIFAITSQRQYMLRIELMDWEGNRAYSQYDRFHIGNEKQNYRLYLKGHTGTAGKQSSLILHGADFSTKDADNDNCMCKCALMLTGGWWFDACGPSNLNGMFYTAGQNHGKLNGIKWHYFKGPSYSLRSTTMMIRPLDF

Variants of: B1
Assay: ELISA (named by the earlier reader; legend does not name the assay); mutant read at its highest concentration point, about 300 nM Tie2 ectodomain; parent value is the wild-type curve's highest concentration point, about 50 nM; parent: 0.9; read off a plot

Variant | response [AU]
chain 1 R145A, chain 1 H146A, chain 1 E147A | ~0.58

Variants of: B1
Assay: ELISA (named by the earlier reader; legend does not name the assay); mutant read at its highest concentration point, about 300 nM Tie2 ectodomain; parent value is the wild-type curve's highest concentration point, about 50 nM; parent: 1; read off a plot

Variant | response [AU]
chain 1 R145A, chain 1 H146A | ~1

Variants of: B2
Assay: ELISA (named by the earlier reader; legend does not name the assay); mutant read at its highest concentration point, about 300 nM Tie2 ectodomain; parent value is the wild-type curve's highest concentration point, about 50-100 nM; parent: …; read off a plot

Variant | response [AU]
chain 1 R145A, chain 1 H146A, chain 1 E147A | ~0.09

Variants of: B2
Assay: ELISA (named by the earlier reader; legend does not name the assay); mutant read at its highest concentration point, about 300 nM Tie2 ectodomain; parent value is the wild-type curve's highest concentration point, about 30-50 nM; parent: 1; read off a plot

Variant | response [AU]
chain 1 R145A, chain 1 H146A | ~0.88
